Test [1] deals with T1, 3-Hydroxypropionyl-CoA dehydratase (Ms3HPCD; 3HPCD; 3-HPCD) (Metallosphaera sedula, UniProt A4YI89).
T1 construct: gene Msed_2001; Met1-Lys256, C-terminal 6xHis tag (pET30a), expressed in E. coli BL21(DE3)-T1R; hexamer (dimer of trimers)
The test is described as follows: X-ray crystal structure, […] Å. As to conditions: co-purified, CoA not added during expression or purification; substrate binding site between two monomers; crystals at pH 6.2, 20 °C.

The target in test [2] is 3-Hydroxypropionyl-CoA dehydratase from Metallosphaera sedula (Metallosphaera sedula). The test is described as follows: crystal structure; Ms3HPCD in complex with CoA, 1.8 Å, space group P21, six monomers in the asymmetric unit; crystals from 10% PEG 8000, 0.1 M sodium-potassium phosphate pH 6.2, 0.2 M NaCl, 10 mM EDTA, 20 °C.
For test [3] the target is unchanged. As to the kind of experiment: SEC; analytical, Superdex increase 200 10/300 GL, 40 mM Tris-HCl pH 8.0, 150 mM NaCl; 1 mL of 1 mg/mL protein; calibrated with ferritin, conalbumin, carbonic anhydrase, ribonuclease A. A general note: Size exclusion chromatography separates by hydrodynamic size, large species first.

T1 sequence (A4YI89 whole entry): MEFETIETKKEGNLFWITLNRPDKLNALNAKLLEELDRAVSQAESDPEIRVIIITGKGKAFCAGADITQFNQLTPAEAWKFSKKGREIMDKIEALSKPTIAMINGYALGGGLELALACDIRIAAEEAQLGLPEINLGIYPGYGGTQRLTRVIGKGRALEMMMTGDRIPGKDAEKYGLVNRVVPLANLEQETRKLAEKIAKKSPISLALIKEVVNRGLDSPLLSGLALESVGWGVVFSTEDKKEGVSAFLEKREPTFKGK

On to `CC(C)(COP(=O)(O)OP(=O)(O)OC[C@H]1O[C@@H](n2cnc3c(N)ncnc32)[C@H](O)[C@@H]1OP(=O)(O)O)[C@@H](O)C(=O)NCCC(=O)NCCS` [CoA], for which, in test [1], the “X-ray crystal structure, 1.8 Å” value was “In our current structure, the CoA molecule is tightly bound at the substrate binding site”.

By stoichiometry N is commonly meant a count of units in the complex or per binding partner. Consider “3-Hydroxypropionyl-CoA dehydratase from Metallosphaera sedula (enzyme)”, for which the stoichiometry N in test [2] and in test [3] was 6 throughout.

These data come from paper PMC6048173, “Structural Insight into Substrate Specificity of 3-Hydroxypropionyl-Coenzyme A Dehydratase from Metallosphaera sedula” (Scientific Reports, 2018).
